Data on two substances can be found in PMC5336275.

In this assay the target is Thermus thermophilus SoxB (Thermus thermophilus) (UniProt Q72IT0). Briefly: ITC; SoxB (50 μM) in the cell, SoxYZ as the titrant; 25°C; 30 mM Tris/HCl pH 8.0, 200 mM NaCl; two replicate experiments fitted together to a hetero-association model (A + B ↔ AB). (ITC needs no label: the signal is the heat of the interaction.)
UniProt Q72IT0, sequence (Q72IT0 entry or part of it): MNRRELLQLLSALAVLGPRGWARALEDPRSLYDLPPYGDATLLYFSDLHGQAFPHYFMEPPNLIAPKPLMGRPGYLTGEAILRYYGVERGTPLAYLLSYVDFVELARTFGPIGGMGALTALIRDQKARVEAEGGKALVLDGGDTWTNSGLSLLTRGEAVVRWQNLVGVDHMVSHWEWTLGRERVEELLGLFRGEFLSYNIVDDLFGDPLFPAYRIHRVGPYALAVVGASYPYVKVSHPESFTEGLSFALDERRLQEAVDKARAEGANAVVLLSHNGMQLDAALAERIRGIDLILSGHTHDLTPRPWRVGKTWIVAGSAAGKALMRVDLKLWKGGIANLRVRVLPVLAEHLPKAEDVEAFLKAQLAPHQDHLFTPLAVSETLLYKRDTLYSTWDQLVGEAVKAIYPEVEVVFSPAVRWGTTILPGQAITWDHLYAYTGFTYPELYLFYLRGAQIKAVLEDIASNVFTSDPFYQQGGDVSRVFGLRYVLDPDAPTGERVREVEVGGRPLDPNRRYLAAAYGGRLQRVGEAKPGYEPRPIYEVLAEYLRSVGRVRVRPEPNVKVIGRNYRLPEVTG

One may read the Kd as the free concentration of one partner at which half of the binding sites on the other are occupied at equilibrium, for simple one-to-one binding. In the case of “Thermus thermophilus SoxYZ-S-sulfonate (from UniProt Q72IS6 1-152; Q72IS7 1-108) (complex)”, the Kd was 30 µM and the dH was -2 kcal/mol.

On to “Thermus thermophilus SoxY_(C151E)Z variant (from UniProt Q72IS6 1-152; Q72IS7 1-108) (complex)”, for which the dissociation constant Kd stood at 10 µM and the dH was -5 kcal/mol.
